Experiments:
Assay in all cases: cell-based or functional assay
[1] = biological target: HIV-1 Env of pseudovirus MGRM-G-016 (HIV-1)
[2] = biological target: HIV-1 Env of isolate MGRM-D-002 (clade D pseudovirus) (HIV-1)
[3] = biological target: HIV-1 envelope glycoprotein (Env) of isolate LAVIC_18 (HIV-1)
[4] = biological target: HIV-1 Env of isolate 93RW029 (clade A pseudovirus) (HIV-1)
[5] = biological target: HIV-1 Env of isolate MGRM-A-003 (clade A pseudovirus) (HIV-1)
[6] = biological target: HIV-1 MGRM-AE-002 Env (pseudovirus) (HIV-1)
[7] = biological target: HIV-1 IAVI-C3 envelope (Env) on pseudovirus (HIV-1)
[8] = biological target: HIV-1 Env of isolate MGRM-A-010 (clade A pseudovirus) (HIV-1)
[9] = biological target: HIV-1 Env of pseudovirus MGRM-F1-016 (clade F) (HIV-1)
[10] = biological target: HIV-1 Env of isolate MGRM-D-013 (clade D pseudovirus) (HIV-1)
[11] = biological target: HIV-1 93UG077 envelope (Env) on pseudovirus (HIV-1)
[12] = biological target: HIV-1 Env of pseudovirus MGRM-G-025 (HIV-1)
[13] = biological target: HIV-1 Env of isolate 93TH305, clade B (HIV-1)
[14] = biological target: HIV-1 Env of isolate MGRM-D-005 (clade D pseudovirus) (HIV-1)
[15] = biological target: HIV-1 Env of isolate MGRM-A-014 (clade A pseudovirus) (HIV-1)
[16] = biological target: HIV-1 MGRM-G-009 Env (pseudovirus) (HIV-1)
[17] = biological target: HIV-1 Env of pseudovirus MGRM-F1-020 (clade F) (HIV-1)
[18] = biological target: HIV-1 Env of isolate MGRM-D-001 (clade D pseudovirus) (HIV-1)
[19] = biological target: HIV-1 isolate 94UG114 envelope glycoprotein (Env), clade D, on pseudovirus (HIV-1)
[20] = biological target: HIV-1 MGRM-A-010 Env (HIV-1)
[21] = biological target: HIV-1 92UG024 Env (HIV-1)
[22] = biological target: HIV-1 93IN905 Env (HIV-1)
[23] = biological target: HIV-1 envelope glycoprotein (Env) of isolate MGRM-AE-002, subtype AE (HIV-1)
[24] = biological target: HIV-1 envelope glycoprotein (Env) of isolate MG RM-A-009, subtype A (HIV-1)
HIV-1 CMU02 Env (HIV-1) = biological target: HIV-1 CMU02 Env (HIV-1)
[25] = biological target: HIV-1 envelope glycoprotein (Env) of isolate 92UG037, subtype A (HIV-1)
[26] = biological target: HIV-1 envelope glycoprotein (Env) of isolate MG RM-A-012, subtype A (HIV-1)
[27] = biological target: HIV-1 JR-CSF Env T413A (HIV-1 (isolate JR-CSF)) (UniProt P20871)
[28] = biological target: HIV-1 Env of isolate MGRM-AG-008 (pseudovirus) (HIV-1)
[29] = biological target: HIV-1 Env of isolate CMU02 (pseudovirus) (HIV-1)
[30] = biological target: aMLV envelope (negative control pseudovirus) (aMLV)

Sequence of 1443_C16 (PG16) (TCN-116) (antibody) (VH): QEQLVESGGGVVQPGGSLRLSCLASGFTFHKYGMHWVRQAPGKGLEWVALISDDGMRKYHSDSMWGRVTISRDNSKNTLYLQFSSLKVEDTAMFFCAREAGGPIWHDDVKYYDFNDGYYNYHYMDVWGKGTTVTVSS
Sequence of 1443_C16 (PG16) (TCN-116) (antibody) (VL): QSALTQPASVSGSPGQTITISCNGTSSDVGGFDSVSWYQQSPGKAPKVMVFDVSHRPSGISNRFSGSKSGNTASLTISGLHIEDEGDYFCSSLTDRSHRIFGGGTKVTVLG

Row | Substance | IC50 (µg/ml), pseudovirus neutralization [1] [µg/mL] | IC50, pseudovirus neutralization [2] [µg/mL] | IC50 (µg/ml), pseudovirus neutralization [3] [µg/mL] | IC50 (µg/ml), pseudovirus neutralization [4] [µg/mL] | IC50 (µg/ml), pseudovirus neutralization [5] [µg/mL] | IC50 (µg/ml), pseudovirus neutralization [6] [µg/mL] | neutralization IC50 [7] [µg/mL] | IC50 (µg/ml), pseudovirus neutralization [8] [µg/mL] | IC50 [9] [µg/mL] | IC50, pseudovirus neutralization [10] [µg/mL] | neutralization IC50 [11] [µg/mL] | IC50 (µg/ml), pseudovirus neutralization [12] [µg/mL] | IC50 (µg/ml), pseudovirus neutralization [13] [µg/mL] | IC50, pseudovirus neutralization [14] [µg/mL] | IC50 (µg/ml), pseudovirus neutralization [15] [µg/mL] | IC50 (µg/ml), pseudovirus neutralization [16] [µg/mL] | IC50 [17] [µg/mL] | IC50, pseudovirus neutralization [18] [µg/mL] | IC50 (µg/ml), pseudovirus neutralization [19] [µg/mL] | IC50, pseudovirus neutralization [21] [µg/mL] | also measured
1 | 2F5 (antibody) | 16.8 | 24.6 | > 50 | > 50 | 7.37 | 0.31 | > 50 | 20.8 | 21.5 | 2.12 | 4.45 | > 50 | 7.61 | > 50 | 1.43 | 7.21 | 0.59 | 0.63 | > 50 |  | 
2 | 2G12 (antibody) | > 50 | > 50 | > 50 | > 50 | > 50 | > 50 | > 50 | 17 | > 50 | > 50 | > 50 | 31.9 | 0.55 | 25.7 | > 50 | > 50 | > 50 | > 50 | 13.9 |  | 
3 | 4E10 (antibody) | 1.02 | 9.44 | > 50 | 15.5 | 5.94 | 0.55 | 5 | 14.4 | 7.61 | 5.38 | 11.2 | 1.7 | 12.3 | 35.2 | 1.74 | 1.34 | 0.66 | 1.84 | 9.72 |  | 
4 | 1443_C16 (PG16) (TCN-116) (antibody) | 11.3 | 0.01 | 0.02 | 3.83 | 2.65 | 0.01 | 14.8 | 0.004 | 1.12 | 0.11 | > 50 | > 50 | 19.3 | 19.7 | 20.3 | > 50 | 4.35 | > 50 | > 50 |  | 
5 | 1495_C14 (PGC14) (antibody) | > 50 | 29 | > 50 | 42 | > 50 | > 50 | > 50 | > 50 | > 50 | > 50 | > 50 | > 50 | 6 | > 50 | > 50 | > 50 | > 50 | > 50 | > 50 |  | 
6 | 1496_C09 (PG9) (TCN-109) (antibody) | 0.4 | 0.027 | 0.1 | 1.19 | 0.65 | 0.04 | 12.9 |  | 0.58 | 0.06 |  |  | 2.08 | 0.59 | 0.62 | 4.9 | 4.55 |  |  | 1.91 | IC50, pseudovirus neutralization [20]: 0.0375 µg/mL; IC50, pseudovirus neutralization [22]: 0.048 µg/mL
7 | 4838_L06 (PGT-121) (antibody) |  |  |  |  |  |  |  |  |  |  |  |  |  |  |  |  |  |  |  | > 10 | IC50, pseudovirus neutralization [23]: > 50 µg/mL; IC50, pseudovirus neutralization [24]: 0.006 µg/mL; IC50, pseudovirus neutralization (HIV-1 CMU02 Env (HIV-1)): > 10 µg/mL; IC50, pseudovirus neutralization [25]: 0.031 µg/mL; IC50, pseudovirus neutralization [26]: 0.092 µg/mL
8 | 4858_P08 (PGT-123) (antibody) |  |  |  |  |  |  |  |  |  |  |  |  |  |  |  |  |  |  |  | > 10 | IC50, pseudovirus neutralization [23]: > 50 µg/mL; Fold IC50 increase relative to wild-type (pseudovirus neutralization) [27]: 0.4 fold; IC50, pseudovirus neutralization [24]: 0.004 µg/mL; IC50, pseudovirus neutralization [20]: 0.492 µg/mL; IC50, pseudovirus neutralization (HIV-1 CMU02 Env (HIV-1)): > 10 µg/mL; IC50 (µg/mL), pseudovirus neutralization [28]: 19.2 µg/mL; IC50, pseudovirus neutralization [25]: 0.023 µg/mL; IC50, pseudovirus neutralization [22]: 0.0071 µg/mL; IC50, pseudovirus neutralization [26]: 0.192 µg/mL
9 | 4877_D15 (PGT-122) (antibody) |  |  |  |  |  |  |  |  |  |  |  |  |  |  |  |  |  |  |  | > 10 | IC50, pseudovirus neutralization [23]: > 50 µg/mL; IC50, pseudovirus neutralization [24]: 0.012 µg/mL; IC50, pseudovirus neutralization [20]: 1.68 µg/mL; IC50, pseudovirus neutralization (HIV-1 CMU02 Env (HIV-1)): > 10 µg/mL; IC50 (µg/mL), pseudovirus neutralization [28]: > 50 µg/mL; IC50, pseudovirus neutralization [25]: 0.068 µg/mL; IC50, pseudovirus neutralization [22]: 0.0138 µg/mL; IC50, pseudovirus neutralization [26]: 0.257 µg/mL
10 | 5123_A06 (PGT-125) (antibody) |  |  |  |  |  |  |  |  |  |  |  |  |  |  |  |  |  |  |  | > 10 | IC50, pseudovirus neutralization [23]: > 50 µg/mL; Fold IC50 increase relative to wild-type (pseudovirus neutralization) [27]: 0.5 fold; IC50, pseudovirus neutralization [24]: 0.009 µg/mL; IC50, pseudovirus neutralization [20]: 0.0025 µg/mL; IC50, pseudovirus neutralization (HIV-1 CMU02 Env (HIV-1)): > 10 µg/mL; IC50 (µg/mL), pseudovirus neutralization [28]: > 50 µg/mL; IC50, pseudovirus neutralization [25]: 0.005 µg/mL; IC50, pseudovirus neutralization [22]: 0.0137 µg/mL; IC50, pseudovirus neutralization [26]: 0.177 µg/mL
11 | 5141_B17 (PGT-126) (antibody) |  |  |  |  |  |  |  |  |  |  |  |  |  |  |  |  |  |  |  | > 10 | IC50, pseudovirus neutralization [23]: > 50 µg/mL; Fold IC50 increase relative to wild-type (pseudovirus neutralization) [27]: 0.7 fold; IC50, pseudovirus neutralization [24]: 0.004 µg/mL; IC50, pseudovirus neutralization [20]: 0.0033 µg/mL; IC50, pseudovirus neutralization (HIV-1 CMU02 Env (HIV-1)): > 10 µg/mL; IC50 (µg/mL), pseudovirus neutralization [28]: > 50 µg/mL; IC50, pseudovirus neutralization [25]: 0.011 µg/mL; IC50, pseudovirus neutralization [22]: 0.0194 µg/mL; IC50, pseudovirus neutralization [26]: 0.097 µg/mL
12 | 5145_B14 (PGT-127) (antibody) |  |  |  |  |  |  |  |  |  |  |  |  |  |  |  |  |  |  |  |  | IC50, pseudovirus neutralization [23]: > 50 µg/mL; Fold IC50 increase relative to wild-type (pseudovirus neutralization) [27]: 0.8 fold; IC50, pseudovirus neutralization [24]: 0.013 µg/mL; IC50 (µg/mL), pseudovirus neutralization [28]: > 50 µg/mL; IC50, pseudovirus neutralization [25]: 0.014 µg/mL; IC50, pseudovirus neutralization [26]: 0.105 µg/mL
13 | PGV04 (antibody) |  |  |  |  |  |  |  |  |  |  |  |  |  |  |  |  |  |  |  |  | IC50 (µg/mL), pseudovirus neutralization [29]: 1.24 µg/mL; IC50 (µg/mL), pseudovirus neutralization [28]: 2.48 µg/mL; IC50 (µg/mL), pseudovirus neutralization [30]: > 50 µg/mL
14 | b12 (antibody) | > 50 | > 50 | > 50 | > 50 | > 50 | 17.1 | 5 | > 50 | > 50 | > 50 | 41.1 | > 50 | 4.17 | > 50 | > 50 | > 50 | > 50 | > 50 | > 50 |  | 
